Experiment: yeast display, Sf9 membrane polyspecificity reagent, FACS + sequencing; frameworks hold sequencing errors
Outline: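 A synthetic nanobody library was expressed on Saccharomyces cerevisiae BJ5465 by galactose induction for 36–48 hours. The library was stained for 1 hour at 4 °C with 10% biotinylated, detergent-solubilized Sf9 membrane reagent and enriched with streptavidin microbeads before FACS. Low and high (top ~1%) gates were set on anti-HA fluorescence for expression and streptavidin fluorescence for reagent binding, and each polyreactivity label reflects the gate of origin.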

For “QVQLVESGGGLVQAGGSLRLSCAASGFIFRWYTLGWYRQAPGKERELVAAISRSGGSTYYADSVKGRFTISRDNAKNTVYLQMNSLKPEDTAVYYCNAYDHPIYRLDYWGQGTQVTVSS”, the “polyreactivity (PSR sort gate)” value was “high polyreactivity”.
For “QVQLVESGGGLVQAGGSLRLSCAASGFIFRYNAMGWYIQAPGKERELVASIDWSGGSTYYADSVKGGFTISRDNAKITVYLQMNSLKPEDTEVYYCAADTSYWYDYYIDYVGYYYWGQGTQVTVSS”, the “polyreactivity (PSR sort gate)” value was “high polyreactivity”.
For “QVQLVESGGGLVQAGGSLRLSCAASGFIFRYNAMGWYRQAPGKEREFVAAISQGGASTYYADSVKGRFTISRDNAKNTVYLQMNSLKPEDTAVYYCAREPSIFTPSYDYWGQGTQVTVSS”, the “polyreactivity (PSR sort gate)” value was “low polyreactivity”.
For “QVQLVESGGGLVQAGGSLRLSCAASGFIFRYNAMGWYRQAPGKEREFVAAISWGGGRTYYADSVKGRFTISRDNAKNTVYLQMNSLKPEDTAVYYCAAVSPHNRYGYKYDYWGQGTQVTVSS”, the “polyreactivity (PSR sort gate)” value was “high polyreactivity”.
With “QVQLVESGGGLVQAGGSLRLSCAASGFIFRYNTMGWYRQAPGKERELVAAISVSGARTYYADSVKGRFTISRDNAKNTVYLQMNSLKPEDTAVYYCNRRYPFYSRYNNDYWGQGTQVTVSS” the “polyreactivity (PSR sort gate)” value was “high polyreactivity”.
For “QVQLVESGGGLVQAGGSLRLSCAASGFIFRYYALGWYRQAPGKERELVAAIDYSGGSTNYADSVKGRFTISRDNAKNTVYLQMNSLKPEDTGVYYCATVSDNRYYYWGQGTQVTVSS”, the “polyreactivity (PSR sort gate)” value was “low polyreactivity”.
For “QVQLVESGGGLVQAGGSLRLSCAASGFIFRYYAMGWYRHAPGKERELVAAISSGGRTSYADSVKGRFTISRDNAKNTVYLQMNSLKPEDTAVYYCAADSWRGLFYYGNDYWGQGTQVTVSS”, the “polyreactivity (PSR sort gate)” value was “high polyreactivity”.
With “QVQLVESGGGLVQAGGSLRLSCAASGFIFRYYAMGWYRQAPGKERELVAAIDYSGGSTNYADSVKGRFTISRDNAKNTVYLQMNSLKPEDTAVYYYDYWGQGTQVTVSS” the “polyreactivity (PSR sort gate)” value was “low polyreactivity”.
For “QVQLVESGGGLVQAGGSLRLSCAASGFIFRYYAMGWYRQAPGKERELVAAISSGGGTYYADSVKGRFTISRDNAKNTVYLQMNSLKPEDTAVYYCNKASTSYYRFNYWGQGTQVTVSS”, the “polyreactivity (PSR sort gate)” value was “high polyreactivity”.
In the case of “QVQLVESGGGLVQAGGSLRLSCAASGFIFRYYAMGWYRQAPGKERELVAAISWSGGSTYYADSVKGRFTISRDNAMNTVYLQMNSLKPEDTAVYYCAADRYAILFYAEDYWGQGTQVTVSS”, the “polyreactivity (PSR sort gate)” value is reported as “low polyreactivity”.
For “QVQLVESGGGLVQAGGSLRLSCAASGFIFRYYAMGWYRQAPGKERELVAAISWSGGTTYYADSVKGRFTISRDNAKNTVYLQMNSLKPEDTAVYYCAARVARISVPYDYWGQGTEVTVSS”, the “polyreactivity (PSR sort gate)” value was “low polyreactivity”.
For “QVQLVESGGGLVQAGGSLRLSCAASGFIFRYYAMGWYRQAPGKERELVAAITSGGASTYYADSVKGRFTISRDNAKNTVYLQMNSLKPEDTAVYYCAADTSSYSEYDYWGQGTQVTVSS”, the “polyreactivity (PSR sort gate)” value was “low polyreactivity”.
For “QVQLVESGGGLVQAGGSLRLSCAASGFIFRYYAMGWYRQAPGKERELVARITPRGGRTYYADSVKGRFTISRDNAKNTVYLQMNSLKPEDTAVYYCAAVYPVLDEFGYWGQGTQVTVSS”, the “polyreactivity (PSR sort gate)” value was “high polyreactivity”.
For “QVQLVESGGGLVQAGGSLRLSCAASGFIFRYYDMGWYRQAPGKERELVAAISWSGCSTYYADSVKGRFTISRDNAKNTVYLQMNSLKPEYTAVYYCAAERYAMLFYAEDYWGQGTQVTVSS”, the “polyreactivity (PSR sort gate)” value was “low polyreactivity”.
For “QVQLVESGGGLVQAGGSLRLSCAASGFIFRYYTMGWYRQAPVKERELVASITRSGGSTYYADSVKGRFTISRDNGKNTVYLQMNSLKPEDTAVYYCAAVVYLRFRNSYWGQGTQVTVSS”, the “polyreactivity (PSR sort gate)” value was “high polyreactivity”.
For “QVQLVESGGGLVQAGGSLRLSCAASGFIFSANDMGGYRQAPGKERELVADIDSSGRTNYADSVKGRFTISRDNAKNTVYLQMNSLNPEDTAVYYCATPPDDKGGGYLGYDYWGQGTEVTVSS”, the “polyreactivity (PSR sort gate)” value was “low polyreactivity”.
In the case of “QVQLVESGGGLVQAGGSLRLSCAASGFIFSFDNAMGWYRQAPGKERELVAAISSGTTTHYADSVKGRFTISRDNAKNTVYLQMNSLKREDTAVYYCAAGTATDVASIGATKDYDYWGQGTQGTVSS”, the “polyreactivity (PSR sort gate)” value is reported as “low polyreactivity”.
In the case of “QVQLVESGGGLVQAGGSLRLSCAASGFIFSFYVMGWYRQAPGKERELVAAISTSGASTYYADSVKGRFTISRDNAKNTVYLQMNSLKPEDTAVFYCNVVYRYGGYNYWGQGTQVTVSS”, the “polyreactivity (PSR sort gate)” value is reported as “high polyreactivity”.
With “QVQLVESGGGLVQAGGSLRLSCAASGFIFSGNAMGWYRQAPGKEREFVAAISTSAGTTNYADSVKGRFTISRDNAKNTVYLQMNSLKPEDTAVYYCAARSTRRRIYGYWGQGTQVTVSS” the “polyreactivity (PSR sort gate)” value was “high polyreactivity”.
For “QVQLVESGGGLVQAGGSLRLSCAASGFIFSGYAMGWYRQAPGKERELVAAIRWSTGSTYYADSVKGRFTISRDNAKNTVYLQMNSLKPEDTAVYYCNAYRYQWAQSTEYDYWGQGTQVTVSS”, the “polyreactivity (PSR sort gate)” value was “high polyreactivity”.
In the case of “QVQLVESGGGLVQAGGSLRLSCAASGFIFSGYAMGWYRQAPGKERELVAAISGGGSTYYADSVKGRFTSSRDNAKNTVYLQMNNLKPEETADYYCAARVYWSVRYYYWGQGTQVTVSS”, the “polyreactivity (PSR sort gate)” value is reported as “high polyreactivity”.
For “QVQLVESGGGLVQAGGSLRLSCAASGFIFSGYAMGWYRQAPGKERELVAAISTRGGRTYYADSVKGRFTISRDNAKNTVYLQMNSLKPEDTAVYYCAADSLYPELDYWGQGTQVTVSS”, the “polyreactivity (PSR sort gate)” value was “high polyreactivity”.
For “QVQLVESGGGLVQAGGSLRLSCAASGFIFSHNAMGWYRQAPGKERELVAAIDYIDGSTYYADSVKGRFTISRDNAKNTVYLQMNSLKPEDTAVYYCAADGLFYWWHYGYWGQGTQVTVSS”, the “polyreactivity (PSR sort gate)” value was “low polyreactivity”.
For “QVQLVESGGGLVQAGGSLRLSCAASGFIFSHNAMGWYRQAPGKERELVAAIDYIDGSTYYADSVKGRFTISRDNAKYTVYLQMNSLIPEDTAVYDCAADGLFYWWHYGYWGQGSQVTVSS”, the “polyreactivity (PSR sort gate)” value was “low polyreactivity”.
With “QVQLVESGGGLVQAGGSLRLSCAASGFIFSHYAMGWYRQSPGKEREFVATSSKRGGSTTYADSVKGRFTISRDNAKNTVYLQMNSLKPEDTAVYYCAADRYRSFERYDYWGQGTQVTVSS” the “polyreactivity (PSR sort gate)” value was “high polyreactivity”.
With “QVQLVESGGGLVQAGGSLRLSCAASGFIFSKNAMGWYRQAPGKERELVARITRRVGSTYYADSVKGRFTISRDNAKNTVYIQMNSLKPEDTAVYYCAVLPRVKDGTGGDYWGQGTQVTVSS” the “polyreactivity (PSR sort gate)” value was “high polyreactivity”.
With “QVQLVESGGGLVQAGGSLRLSCAASGFIFSKYAMGWYRQAPGKERELVAAISTSGASTYYADSVKGRFTISRDNAKNTVYLQMNSLKPEDTAVYYCNVPRYSPIRNYDYWGQGTQVTVSS” the “polyreactivity (PSR sort gate)” value was “high polyreactivity”.
With “QVQLVESGGGLVQAGGSLRLSCAASGFIFSKYGMGWYRQAPGKERELVAAISIRGGNTYYADSVKGRFTISRDNAKNTFYLQMYSLKPEDTAVYYCAAGLRAYPYGTRSGVYYYWGQGTQVTVSS” the “polyreactivity (PSR sort gate)” value was “high polyreactivity”.
For “QVQLVESGGGLVQAGGSLRLSCAASGFIFSLYAMGWYRQAPGKERELVAAITRSGGSTYYADSVKGRFTISRDNAKNTVYLQMNSLKPEDTAVYYCAASRGRGGYGFDYWGQGTQVTVSS”, the “polyreactivity (PSR sort gate)” value was “high polyreactivity”.
With “QVQLVESGGGLVQAGGSLRLSCAASGFIFSNNAMGWSRQAPGKERELVAAITSSGGRTYYADSVKGRFTISRDNAKNTVYLLMNSLKPEDTAVYYCAAARYDIMGYWGQGTQVTVSS” the “polyreactivity (PSR sort gate)” value was “high polyreactivity”.
For “QVQLVESGGGLVQAGGSLRLSCAASGFIFSNYAMGWYRQAPGKERELVARISSSGGSTYYADSVKVRFTISRDIAKNTVYLQMNSLKPEVTAVYYCAAGFNLPAWGWAYYYWGQGTQVTVSS”, the “polyreactivity (PSR sort gate)” value was “high polyreactivity”.
In the case of “QVQLVESGGGLVQAGGSLRLSCAASGFIFSPYAMGWYRQAPGKVRELVAAISRRGGSTYYADSVKGRFTISRDNAKNTVYLQMNSLKPEDTAVYYCAAVYGASQVDYDYWGQGTQVTVSS”, the “polyreactivity (PSR sort gate)” value is reported as “high polyreactivity”.

From the nanobody polyreactivity screen of Harvey et al. (2022)
